{"source": "patent US20120316071A1", "binders": {"B1": {"name": "Fab VH4-34_IGHD7-27*01_IGHJ4*01 & V1-4_IGLJ4*01 (Fab, V domains shown)", "VH": "QVQLQQWGAGLLKPSETLSLTCAVYGGSFSGYYWSWIRQPPGKGLEWIGEINHSGSTNYNPSLKSRVTISVDTSKNQFSLKLSSVTAADTAVYYCARANWGDYFDYWGQGTLVTVSS", "VL": "QSALTQPASVSGSPGQSITISCTGTSSDVGGYNYVSWYQQHPGKAPKLMIYEVSNRPSGVSNRFSGSKSGNTASLTISGLQAEDEADYYCSSYTSSSTLFVFGGGTQLIIL"}, "B2": {"name": "Fab VH4-34_IGHD7-27*01_IGHJ4*01 & V4-6_IGLJ4*01 (Fab, V domains shown)", "VH": "QVQLQQWGAGLLKPSETLSLTCAVYGGSFSGYYWSWIRQPPGKGLEWIGEINHSGSTNYNPSLKSRVTISVDTSKNQFSLKLSSVTAADTAVYYCARANWGDYFDYWGQGTLVTVSS", "VL": "RPVLTQPPSLSASPGATARLPCTLSSDLSVGGKNMFWYQQKPGSSPRLFLYHYSDSDKQLGPGVPSRVSGSKETSSNTAFLLISGLQPEDEADYYCQVYESSANFVFGGGTQLIIL"}}, "key": {"[1]": {"biological_target": "rHuman P-Cadherin/Fc Chimera, CF (R&D Systems Cat#861-PC) (human) (UniProt P22223)", "assay": "Multispot ECL (MSD), antigen spotted on plate, Fab 580 nM; blank spot 679"}, "[2]": {"biological_target": "rHuman P-Cadherin/Fc Chimera, CF (R&D Systems Cat#861-PC) (human) (UniProt P22223)", "assay": "Multispot ECL (MSD), antigen spotted on plate, Fab […]; blank spot 276"}, "[3]": {"biological_target": "rHuman P-Cadherin/Fc Chimera, CF (R&D Systems Cat#861-PC) (human) (UniProt P22223)", "assay": "Multispot ECL (MSD), antigen spotted on plate, Fab […]; blank spot 357"}, "[4]": {"biological_target": "rHuman P-Cadherin/Fc Chimera, CF (R&D Systems Cat#861-PC) (human) (UniProt P22223)", "assay": "Multispot ECL (MSD), antigen spotted on plate, Fab 36.3 nM; blank spot 314"}, "[5]": {"biological_target": "rHuman P-Cadherin/Fc Chimera, CF (R&D Systems Cat#861-PC) (human) (UniProt P22223)", "assay": "Multispot ECL (MSD), antigen spotted on plate, Fab 170 nM; blank spot 262"}, "[6]": {"biological_target": "rHuman EGF R/Fc Chimera, CF (R&D Systems Cat#344-ER) (human) (UniProt P00533)", "assay": "Multispot ECL (MSD), antigen spotted on plate, Fab 170 nM; blank spot 262"}, "[7]": {"biological_target": "rHuman HGF R/c-MET/Fc Chimera, CF (R&D Systems Cat#358-MT/CF) (human) (UniProt P08581)", "sequence (P08581 25-932, change not shown)": "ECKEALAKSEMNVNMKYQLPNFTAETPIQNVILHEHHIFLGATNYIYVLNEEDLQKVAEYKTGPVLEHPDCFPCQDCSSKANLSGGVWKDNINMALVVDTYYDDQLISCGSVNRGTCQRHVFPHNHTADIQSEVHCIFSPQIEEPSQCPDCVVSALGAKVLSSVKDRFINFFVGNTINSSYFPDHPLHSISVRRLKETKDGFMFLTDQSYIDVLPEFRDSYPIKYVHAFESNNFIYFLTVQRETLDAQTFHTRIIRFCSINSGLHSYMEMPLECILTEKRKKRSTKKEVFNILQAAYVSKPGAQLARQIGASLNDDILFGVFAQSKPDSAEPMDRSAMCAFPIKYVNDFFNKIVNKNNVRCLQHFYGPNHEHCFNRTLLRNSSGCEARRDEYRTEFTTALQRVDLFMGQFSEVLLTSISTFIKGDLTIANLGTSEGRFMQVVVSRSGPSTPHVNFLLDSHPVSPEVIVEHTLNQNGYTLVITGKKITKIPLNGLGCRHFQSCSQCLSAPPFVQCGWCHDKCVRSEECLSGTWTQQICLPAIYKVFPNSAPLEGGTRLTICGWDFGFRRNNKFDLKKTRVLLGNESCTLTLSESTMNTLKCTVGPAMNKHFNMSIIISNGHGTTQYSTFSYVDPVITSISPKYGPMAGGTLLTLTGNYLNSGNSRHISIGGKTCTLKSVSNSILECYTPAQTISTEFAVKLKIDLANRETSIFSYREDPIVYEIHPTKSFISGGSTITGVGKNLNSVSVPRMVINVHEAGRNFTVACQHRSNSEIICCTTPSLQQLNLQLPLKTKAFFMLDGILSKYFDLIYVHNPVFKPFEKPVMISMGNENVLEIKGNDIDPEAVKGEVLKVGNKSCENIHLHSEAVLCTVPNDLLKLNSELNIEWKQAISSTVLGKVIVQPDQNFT", "assay": "Multispot ECL (MSD), antigen spotted on plate, Fab 170 nM; blank spot 262"}, "[8]": {"biological_target": "rHuman ErbB2/Fc Chimera, CF (R&D Systems Cat#1129-ER) (human) (UniProt P04626)", "assay": "Multispot ECL (MSD), antigen spotted on plate, Fab 170 nM; blank spot 262"}, "[9]": {"biological_target": "rHuman IGF-1 sR, (IGF-1 sR), CF (R&D Systems Cat#391-GR) (human) (UniProt P08069)", "assay": "Multispot ECL (MSD), antigen spotted on plate, Fab 170 nM; blank spot 262"}, "[10]": {"biological_target": "rHuman Erythropoietin R/Fc Chimera, CF (R&D Systems Cat#963-ER) (human) (UniProt P19235)", "sequence (P19235 25-250, change not shown)": "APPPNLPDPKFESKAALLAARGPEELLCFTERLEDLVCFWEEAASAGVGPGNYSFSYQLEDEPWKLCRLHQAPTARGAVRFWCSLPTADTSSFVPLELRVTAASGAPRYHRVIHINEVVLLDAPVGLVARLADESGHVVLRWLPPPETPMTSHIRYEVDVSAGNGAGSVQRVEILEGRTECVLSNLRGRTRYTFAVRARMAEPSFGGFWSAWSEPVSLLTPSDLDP", "assay": "Multispot ECL (MSD), antigen spotted on plate, Fab 170 nM; blank spot 262"}, "[11]": {"biological_target": "rHuman CD44/Fc Chimera, CF (R&D Systems Cat#3660-CD) (human) (UniProt P16070)", "assay": "Multispot ECL (MSD), antigen spotted on plate, Fab 170 nM; blank spot 262"}, "[12]": {"biological_target": "rHuman Notch-1/Fc Chimera, CF (R&D Systems Cat#3647-TK) (human) (UniProt P46531)", "assay": "Multispot ECL (MSD), antigen spotted on plate, Fab 170 nM; blank spot 262"}, "[13]": {"biological_target": "rHuman P-Cadherin/Fc Chimera, CF (R&D Systems Cat#861-PC) (human) (UniProt P22223)", "assay": "Multispot ECL (MSD), antigen spotted on plate, Fab […]; blank spot 162"}, "[14]": {"biological_target": "rHuman EGF R/Fc Chimera, CF (R&D Systems Cat#344-ER) (human) (UniProt P00533)", "assay": "Multispot ECL (MSD), antigen spotted on plate, Fab […]; blank spot 162"}, "[15]": {"biological_target": "rHuman HGF R/c-MET/Fc Chimera, CF (R&D Systems Cat#358-MT/CF) (human) (UniProt P08581)", "assay": "Multispot ECL (MSD), antigen spotted on plate, Fab […]; blank spot 162"}, "[16]": {"biological_target": "rHuman ErbB2/Fc Chimera, CF (R&D Systems Cat#1129-ER) (human) (UniProt P04626)", "assay": "Multispot ECL (MSD), antigen spotted on plate, Fab […]; blank spot 162"}, "[17]": {"biological_target": "rHuman IGF-1 sR, (IGF-1 sR), CF (R&D Systems Cat#391-GR) (human) (UniProt P08069)", "assay": "Multispot ECL (MSD), antigen spotted on plate, Fab […]; blank spot 162"}, "[18]": {"biological_target": "rHuman Erythropoietin R/Fc Chimera, CF (R&D Systems Cat#963-ER) (human) (UniProt P19235)", "assay": "Multispot ECL (MSD), antigen spotted on plate, Fab […]; blank spot 162"}, "[19]": {"biological_target": "rHuman CD44/Fc Chimera, CF (R&D Systems Cat#3660-CD) (human) (UniProt P16070)", "assay": "Multispot ECL (MSD), antigen spotted on plate, Fab […]; blank spot 162"}, "[20]": {"biological_target": "rHuman Notch-1/Fc Chimera, CF (R&D Systems Cat#3647-TK) (human) (UniProt P46531)", "assay": "Multispot ECL (MSD), antigen spotted on plate, Fab […]; blank spot 162"}, "[21]": {"biological_target": "rHuman P-Cadherin/Fc Chimera, CF (R&D Systems Cat#861-PC) (human) (UniProt P22223)", "assay": "Multispot ECL (MSD), antigen spotted on plate, Fab 85.0 nM; blank spot 292"}, "[22]": {"biological_target": "rHuman EGF R/Fc Chimera, CF (R&D Systems Cat#344-ER) (human) (UniProt P00533)", "assay": "Multispot ECL (MSD), antigen spotted on plate, Fab 85.0 nM; blank spot 292"}, "[23]": {"biological_target": "rHuman HGF R/c-MET/Fc Chimera, CF (R&D Systems Cat#358-MT/CF) (human) (UniProt P08581)", "assay": "Multispot ECL (MSD), antigen spotted on plate, Fab 85.0 nM; blank spot 292"}, "[24]": {"biological_target": "rHuman ErbB2/Fc Chimera, CF (R&D Systems Cat#1129-ER) (human) (UniProt P04626)", "assay": "Multispot ECL (MSD), antigen spotted on plate, Fab 85.0 nM; blank spot 292"}, "[25]": {"biological_target": "rHuman IGF-1 sR, (IGF-1 sR), CF (R&D Systems Cat#391-GR) (human) (UniProt P08069)", "assay": "Multispot ECL (MSD), antigen spotted on plate, Fab 85.0 nM; blank spot 292"}, "[26]": {"biological_target": "rHuman Erythropoietin R/Fc Chimera, CF (R&D Systems Cat#963-ER) (human) (UniProt P19235)", "assay": "Multispot ECL (MSD), antigen spotted on plate, Fab 85.0 nM; blank spot 292"}, "[27]": {"biological_target": "rHuman CD44/Fc Chimera, CF (R&D Systems Cat#3660-CD) (human) (UniProt P16070)", "assay": "Multispot ECL (MSD), antigen spotted on plate, Fab 85.0 nM; blank spot 292"}, "[28]": {"biological_target": "rHuman Notch-1/Fc Chimera, CF (R&D Systems Cat#3647-TK) (human) (UniProt P46531)", "assay": "Multispot ECL (MSD), antigen spotted on plate, Fab 85.0 nM; blank spot 292"}, "[29]": {"biological_target": "rHuman P-Cadherin/Fc Chimera, CF (R&D Systems Cat#861-PC) (human) (UniProt P22223)", "assay": "Multispot ECL (MSD), antigen spotted on plate, Fab 340 nM; blank spot 554"}, "[30]": {"biological_target": "rHuman EGF R/Fc Chimera, CF (R&D Systems Cat#344-ER) (human) (UniProt P00533)", "assay": "Multispot ECL (MSD), antigen spotted on plate, Fab 340 nM; blank spot 554"}, "[31]": {"biological_target": "rHuman HGF R/c-MET/Fc Chimera, CF (R&D Systems Cat#358-MT/CF) (human) (UniProt P08581)", "assay": "Multispot ECL (MSD), antigen spotted on plate, Fab 340 nM; blank spot 554"}, "[32]": {"biological_target": "rHuman ErbB2/Fc Chimera, CF (R&D Systems Cat#1129-ER) (human) (UniProt P04626)", "assay": "Multispot ECL (MSD), antigen spotted on plate, Fab 340 nM; blank spot 554"}, "[33]": {"biological_target": "rHuman IGF-1 sR, (IGF-1 sR), CF (R&D Systems Cat#391-GR) (human) (UniProt P08069)", "assay": "Multispot ECL (MSD), antigen spotted on plate, Fab 340 nM; blank spot 554"}, "[34]": {"biological_target": "rHuman Erythropoietin R/Fc Chimera, CF (R&D Systems Cat#963-ER) (human) (UniProt P19235)", "assay": "Multispot ECL (MSD), antigen spotted on plate, Fab 340 nM; blank spot 554"}, "[35]": {"biological_target": "rHuman CD44/Fc Chimera, CF (R&D Systems Cat#3660-CD) (human) (UniProt P16070)", "assay": "Multispot ECL (MSD), antigen spotted on plate, Fab 340 nM; blank spot 554"}, "[36]": {"biological_target": "rHuman Notch-1/Fc Chimera, CF (R&D Systems Cat#3647-TK) (human) (UniProt P46531)", "assay": "Multispot ECL (MSD), antigen spotted on plate, Fab 340 nM; blank spot 554"}}}
{"binder": "B1", "values": [{"measurement": "ECL signal at 580 nM Fab", "setting": "[1]", "result": 2240}, {"measurement": "ECL signal at 9.1 nM Fab", "setting": "[2]", "result": 589}, {"measurement": "ECL signal at 145 nM Fab", "setting": "[3]", "result": 850}, {"measurement": "ECL signal at 36.3 nM Fab", "setting": "[4]", "result": 684}]}
{"binder": "B2", "values": [{"measurement": "ECL signal", "setting": "[5]", "result": 744}, {"measurement": "ECL signal", "setting": "[6]", "result": 826}, {"measurement": "ECL signal", "setting": "[7]", "result": 757}, {"measurement": "ECL signal", "setting": "[8]", "result": 964}, {"measurement": "ECL signal", "setting": "[9]", "result": 832}, {"measurement": "ECL signal", "setting": "[10]", "result": 790}, {"measurement": "ECL signal", "setting": "[11]", "result": 660}, {"measurement": "ECL signal", "setting": "[12]", "result": 816}, {"measurement": "ECL signal", "setting": "[13]", "result": 421}, {"measurement": "ECL signal", "setting": "[14]", "result": 528}, {"measurement": "ECL signal", "setting": "[15]", "result": 607}, {"measurement": "ECL signal", "setting": "[16]", "result": 866}, {"measurement": "ECL signal", "setting": "[17]", "result": 646}, {"measurement": "ECL signal", "setting": "[18]", "result": 494}, {"measurement": "ECL signal", "setting": "[19]", "result": 522}, {"measurement": "ECL signal", "setting": "[20]", "result": 649}, {"measurement": "ECL signal", "setting": "[21]", "result": 709}, {"measurement": "ECL signal", "setting": "[22]", "result": 1000}, {"measurement": "ECL signal", "setting": "[23]", "result": 998}, {"measurement": "ECL signal", "setting": "[24]", "result": 844}, {"measurement": "ECL signal", "setting": "[25]", "result": 891}, {"measurement": "ECL signal", "setting": "[26]", "result": 817}, {"measurement": "ECL signal", "setting": "[27]", "result": 693}, {"measurement": "ECL signal", "setting": "[28]", "result": 780}, {"measurement": "ECL signal", "setting": "[29]", "result": 1160}, {"measurement": "ECL signal", "setting": "[30]", "result": 1210}, {"measurement": "ECL signal", "setting": "[31]", "result": 1240}, {"measurement": "ECL signal", "setting": "[32]", "result": 1230}, {"measurement": "ECL signal", "setting": "[33]", "result": 1040}, {"measurement": "ECL signal", "setting": "[34]", "result": 1260}, {"measurement": "ECL signal", "setting": "[35]", "result": 959}, {"measurement": "ECL signal", "setting": "[36]", "result": 1210}]}
